Laboratory results from PMC4917820, “Structural basis for autoinhibition and its relief of MOB1 in the Hippo pathway” (Scientific Reports, 2016).
One block for each molecule: values may come before it.

What was measured:
[1] = target: GST-N-terminal truncated MOB1B, N-terminal 10-residue truncated form (mouse) (UniProt Q8BPB0); test: pull-down; GST-MOB1B and LATS1 proteins (40 μM) mixed 1:1 in 20 mM Tris-HCl (pH 7.5), 0.3 M NaCl, 1 mM DTT, applied to Glutathione Sepharose 4B, washed at 4 °C, eluted with glutathione, SDS-PAGE with Coomassie blue, band intensities
[2] = target: T1, GST-MOB1B, N-terminal 32-residue truncated form (33-216) (mouse, UniProt Q8BPB0 33-216); test: as above; details: both partners purified
T1 construct: MOB1B, mouse, residues 33-216; also called NΔ32; GST-N-truncated Δ32 MOB1B; source: E. coli; GST fusion, purification of this form not described; not shown: GST, N-terminal, kept
T1 sequence (looked up): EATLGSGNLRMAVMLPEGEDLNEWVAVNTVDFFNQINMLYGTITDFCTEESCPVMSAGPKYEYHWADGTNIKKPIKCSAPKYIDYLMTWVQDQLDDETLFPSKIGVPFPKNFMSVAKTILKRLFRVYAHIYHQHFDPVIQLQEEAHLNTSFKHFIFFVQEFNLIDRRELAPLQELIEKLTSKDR

[3] = target: T2, N-terminal truncated MOB1B (33-216) (mouse, UniProt Q8BPB0 33-216); test: crystal structure; 1:1 molar ratio mixture of MOB1B and LATS1 (621-703) crystallised by vapor diffusion, MES pH 6.5, PEG; details: both partners purified
T2 construct: MOB1B, mouse, residues 33-216; also called N-terminal 32-residue truncated form; N-truncated MOB1B; source: E. coli, purified (Glutathione Sepharose 4B, HRV 3C digestion, HiTrap Q gradient, Superdex 75pg); not shown: GST, N-terminal, cleaved
T2 sequence (looked up): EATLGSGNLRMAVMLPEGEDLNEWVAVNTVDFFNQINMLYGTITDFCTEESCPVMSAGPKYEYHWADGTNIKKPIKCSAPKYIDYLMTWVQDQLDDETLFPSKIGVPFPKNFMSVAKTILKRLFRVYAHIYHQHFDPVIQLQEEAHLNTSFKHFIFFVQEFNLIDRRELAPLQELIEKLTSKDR

[4] = target: T3, double-mutant T12D/T35D MOB1B (1-216) (mouse, UniProt Q8BPB0 1-216, T12D | T35D); test: as above; details: both partners purified
T3 construct: MOB1B, mouse, residues 1-216, with T12D and T35D; everywhere else it is T12D/T35D; also called phosphomimic (T12D/T35D) double-mutant; MOB1B(T12/35D); source: E. coli, purified by the same procedure as full-length MOB1B (GST removed); not shown: GST, N-terminal, cleaved
T3 sequence (looked up): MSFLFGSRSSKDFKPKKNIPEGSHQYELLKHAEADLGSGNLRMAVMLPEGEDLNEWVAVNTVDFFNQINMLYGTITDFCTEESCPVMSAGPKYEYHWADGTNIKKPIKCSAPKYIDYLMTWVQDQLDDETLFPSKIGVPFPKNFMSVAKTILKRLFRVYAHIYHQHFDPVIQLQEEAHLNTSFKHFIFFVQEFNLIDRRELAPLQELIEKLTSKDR

B2: NTR domain (residues 604-703) of LATS1 (domain or fragment, mouse, UniProt Q8BYR2 604-703, looked up)
chain: KEKKQITTSPITVRKNKKDEERRESRIQSYSPQAFKFFMEQHVENVLKSHQQRLHRKKQLENEMMRVGLSQDAQDQMRKMLCQKESNYIRLKRAKMDKSM
notes: also called wild-type; source: E. coli BL21 (DE3) Star, resolubilized from the insoluble fraction, purified (Ni-NTA, HiTrap SP, Superdex 75pg)
binding result [2]: binds

B3: NTR domain (604-703) of LATS1, R656A (domain or fragment, mouse, UniProt Q8BYR2 604-703, looked up)
chain: KEKKQITTSPITVRKNKKDEERRESRIQSYSPQAFKFFMEQHVENVLKSHQQALHRKKQLENEMMRVGLSQDAQDQMRKMLCQKESNYIRLKRAKMDKSM
notes: source: E. coli, resolubilized, purified (Ni-NTA, Superdex 75pg)
binding relative to the wild-type [2]: < 20%

B4: NTR domain (604-703) of LATS1, R696A (domain or fragment, mouse, UniProt Q8BYR2 604-703, looked up)
chain: KEKKQITTSPITVRKNKKDEERRESRIQSYSPQAFKFFMEQHVENVLKSHQQRLHRKKQLENEMMRVGLSQDAQDQMRKMLCQKESNYIRLKAAKMDKSM
notes: as for B3
binding relative to the wild-type [2]: < 20%

B6: NTR domain (604-703) of LATS1, R693A (domain or fragment, mouse, UniProt Q8BYR2 604-703, looked up)
chain: KEKKQITTSPITVRKNKKDEERRESRIQSYSPQAFKFFMEQHVENVLKSHQQRLHRKKQLENEMMRVGLSQDAQDQMRKMLCQKESNYIALKRAKMDKSM
notes: as for B3
binding relative to the wild-type [2]: < 20%

Results, then the molecule that gave them:

relative autoinhibition of LATS1 binding (full length 100%, NΔ32 0%) [1]: 66%
Molecule: NTR domain of LATS1 (limits not told for this experiment) (domain or fragment)

binding result [2]: binds
binding result [3]: binds
binding result [4]: binds
B1: NTR domain (residues 621-703) of LATS1 (domain or fragment, mouse, UniProt Q8BYR2 621-703, looked up)
chain: KDEERRESRIQSYSPQAFKFFMEQHVENVLKSHQQRLHRKKQLENEMMRVGLSQDAQDQMRKMLCQKESNYIRLKRAKMDKSM
notes: also called N-terminal regulation (NTR) domain of LATS1; source: E. coli BL21 (DE3) Star, resolubilized from the insoluble fraction, purified (Ni-NTA, HiTrap SP, Superdex 75pg)

binding relative to the wild-type [2]: < 10%
B5: NTR domain (604-703) of LATS1, S689E (domain or fragment, mouse, UniProt Q8BYR2 604-703, looked up)
chain: KEKKQITTSPITVRKNKKDEERRESRIQSYSPQAFKFFMEQHVENVLKSHQQRLHRKKQLENEMMRVGLSQDAQDQMRKMLCQKEENYIRLKRAKMDKSM
notes: also called phosphomimetic substitution; source: E. coli, resolubilized, purified (Ni-NTA, Superdex 75pg)
